Data as given in the supplement of paper PMC10567573.

B1: SPOPL (parent)
chain: PDDKLTLFCEVSVVQDSVNISGHT

Variants of: B1
Assay: protein stability index of a GFP-peptide fusion (GPS, HEK-293T) (PSI 1-6); higher = more stable
Settings: c terminus: a fixed tail appended
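Also: lentivirally expressed fusions sorted by FACS into six bins by GFP to DsRed ratio, PSI derived from sequencing read proportions per bin multiplied by bin number.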

Protein stability index of substitutions, site by site:
D2: V 3.9, W 3.07, Y 1.38
D3: A 2.06, C 1.75, E 2.2, F 1.87, G 2.43, H 1.47, I 2.06, K 1.83, L 2.11, M 1.93, N 2.44, P 2.5, Q 1.95, R 2.05, S 1.79, T 1.51, V 1.8, W 1.73, Y 1.97
K4: A 1.89, C 1.56, D 2.81, E 2.32, F 2.19, G 2.12, H 1.95, I 1.48, L 2.39, M 1.58, N 1.98, P 2.27, Q 2.16, R 1.79, S 2.23, T 1.53, Y 2.26
L5: A 3.66, C 2.88, D 4.41, E 3.9, F 1.52, G 3.07, H 3.96, I 1.88, K 3.82, M 2.21, N 3.95, P 4.1, Q 3.73, R 3.85, S 3.63, T 3.33, V 1.81, W 1.26, Y 2.28
T6: A 2.15, C 1.81, D 2.84, E 2.33, F 2.98, G 3.19, H 2.4, I 1.8, K 3.34, L 1.73, M 1.79, N 2.96, P 3.47, Q 2.58, R 2.02, S 2.32, W 3.41, Y 1.25
L7: A 4.2, C 2.72, D 4.88, E 4.9, F 1.81, G 4.28, H 3.79, I 1.25, K 4.78, M 2.68, N 4.32, P 4.52, Q 4.62, R 3.94, S 3.49, T 3.88, V 1.92, W 1.75, Y 2.72
F8: A 3.65, C 3.22, D 4.94, E 4.39, G 4.82, H 3.64, I 1.3, K 3.48, L 2.91, M 2.86, N 4.86, P 4.79, Q 4.5, R 2.77, S 3.96, T 2.9, V 1.97, W 1.62, Y 2.08
C9: A 3.47, D 4.71, E 4.47, F 2.35, G 4.42, H 4.09, I 3.05, K 4.34, L 3.25, M 2.13, N 4.34, P 4.91, Q 4.21, R 4.54, S 4.52, T 3.83, V 3.85, W 2.62, Y 2.07
E10: A 2.48, C 2.81, D 2.76, F 3.15, G 2.52, H 2.12, I 2.63, K 1.45, L 3.02, M 3.02, N 2.74, P 3.44, Q 2.27, R 1.94, S 1.58, T 3.3, V 3.33, W 2.53
V11: A 4.34, C 3.34, D 4.64, E 4.81, F 2.61, G 4.76, H 4.28, I 1.95, K 4.85, L 1.93, M 2.77, N 4.78, P 4.58, Q 4.62, R 3.67, S 4.47, T 4.26, W 2.14, Y 2.46
S12: A 3.08, C 2.73, D 3.66, E 2.23, F 2.22, G 1.94, H 1.71, I 2.11, K 2, L 2.1, M 1.79, N 2.79, P 3.81, Q 1.73, R 2.32, T 1.71, V 2.53, W 1.98
V13: A 3.35, C 2.57, D 4.61, E 4.61, F 2.03, G 4.14, H 3.63, I 2.51, K 3.11, L 2.02, M 2.12, N 4.03, P 3.99, Q 3.95, R 4.14, S 3.6, T 3.79, W 2.73, Y 1.94
V14: A 2.63, C 1.66, D 3.07, E 3.34, F 2.08, G 2.54, H 3.19, I 2.56, K 2.7, L 1.71, M 2.01, N 2.62, P 3.59, Q 2.7, R 2.74, S 2.07, T 1.86, W 1.81, Y 1.67
Q15: A 1.71, D 3.19, E 3.4, F 3.28, G 1.97, H 1.28, K 2.12, N 1.97, P 3.1, R 1.44, S 2.44, T 2.31
D16: A 2.28, E 1.33, G 2.01, H 1.15, K 1.66, N 1.8, P 1.49, Q 1.27, R 1.21, S 2.32, T 1.53, V 3.7, W 2.43
S17: A 2.29, C 2.61, D 3.11, E 2.99, F 4.06, G 2, H 1.38, K 3.12, L 3.52, M 3.15, N 1.84, P 2.85, Q 2.07, R 1.73, T 1.85, V 1.03, Y 2.99
V18: A 2.83, C 1.85, D 3.67, E 3.04, F 1.73, G 2.83, H 2.6, I 2.09, K 2.69, L 1.57, M 2.05, N 2.99, P 2.7, Q 3.27, R 2.03, S 2.82, T 2.81, Y 1.77
N19: A 2.53, C 1.05, D 2.41, G 1.74, I 1.39, K 1.92, P 2.29, Q 1.39, R 1.2, S 3.03, T 1.35, V 2.65
I20: A 2.74, C 2.86, D 3.77, E 3.42, F 1.31, G 3.21, H 3.43, K 2.56, L 2.56, M 1.78, N 3.08, P 2.59, Q 3.49, S 3.04, T 3.2, V 2.55, W 2.04, Y 2.18
S21: A 2.29, C 1.5, D 3.2, E 2.44, G 2.74, H 1.61, I 3.25, L 1.68, M 2.48, N 2.2, P 2.29, Q 3.3, R 2.47, T 3.16, Y 1.85
G22: A 1.08, C 2.59, D 2.87
